# Results: US20260055205A1 (published 2026)
# T1: cynomolgus monkey CD3 epsilon (cynomolgus monkey, UniProt Q95LI5 22-117, limits assumed)
# T1 construct: also called cyCD3e; cyno CD3
# T1 sequence (looked up): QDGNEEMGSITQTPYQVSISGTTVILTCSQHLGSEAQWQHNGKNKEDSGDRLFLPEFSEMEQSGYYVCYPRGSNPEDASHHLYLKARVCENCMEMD
# Columns and labels:
# [1] = biological target: T1, cynomolgus monkey CD3 epsilon; assay: Octet
# [2] = biological target: T2, human CD3 epsilon (human, UniProt P07766 23-126, limits assumed); assay: Octet
# T2 construct: also called huCD3e
# T2 sequence (P07766 23-126 limits assumed): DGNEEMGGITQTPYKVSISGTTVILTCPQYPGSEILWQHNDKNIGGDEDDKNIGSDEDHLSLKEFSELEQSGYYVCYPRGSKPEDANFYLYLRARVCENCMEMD
# [3] = biological target: T3, human PSMA (human, UniProt Q04609 44-750, limits assumed); assay: Octet
# T3 construct: also called huPSMA; hPSMA
# T3 sequence (Q04609 44-750 limits assumed): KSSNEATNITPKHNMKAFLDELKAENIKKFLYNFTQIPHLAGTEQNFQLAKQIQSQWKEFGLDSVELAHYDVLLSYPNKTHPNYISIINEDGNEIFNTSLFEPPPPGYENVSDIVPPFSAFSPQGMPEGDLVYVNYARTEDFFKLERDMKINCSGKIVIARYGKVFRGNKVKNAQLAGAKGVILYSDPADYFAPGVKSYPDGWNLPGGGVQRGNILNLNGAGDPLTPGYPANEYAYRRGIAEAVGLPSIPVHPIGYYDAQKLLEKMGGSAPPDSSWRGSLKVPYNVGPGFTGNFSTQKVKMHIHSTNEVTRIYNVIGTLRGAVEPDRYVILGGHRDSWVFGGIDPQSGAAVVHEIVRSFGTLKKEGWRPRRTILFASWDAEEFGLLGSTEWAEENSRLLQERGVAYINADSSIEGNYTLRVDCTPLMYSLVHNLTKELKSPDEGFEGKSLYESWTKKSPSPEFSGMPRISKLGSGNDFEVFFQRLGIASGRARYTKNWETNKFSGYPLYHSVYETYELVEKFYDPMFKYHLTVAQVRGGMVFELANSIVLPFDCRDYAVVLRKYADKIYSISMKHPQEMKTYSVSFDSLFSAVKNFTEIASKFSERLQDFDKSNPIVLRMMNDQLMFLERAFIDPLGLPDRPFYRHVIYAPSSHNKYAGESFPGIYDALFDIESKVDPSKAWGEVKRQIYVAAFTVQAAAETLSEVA
# [4] = biological target: T4, cynomolgus monkey PSMA (cynomolgus monkey, UniProt A0A2K5VNZ0 44-750); assay: Octet
# T4 construct: also called cyPSMA; cyno PSMA
# [5] = biological target: T5, human PSMA on PSMA-transfected CHO cells (human, UniProt Q04609 1-750); assay: cell binding, labeled secondary antibody
# T5 construct: whole, on cells; also called Hu PSMA CHO
# T5 sequence (Q04609 whole entry): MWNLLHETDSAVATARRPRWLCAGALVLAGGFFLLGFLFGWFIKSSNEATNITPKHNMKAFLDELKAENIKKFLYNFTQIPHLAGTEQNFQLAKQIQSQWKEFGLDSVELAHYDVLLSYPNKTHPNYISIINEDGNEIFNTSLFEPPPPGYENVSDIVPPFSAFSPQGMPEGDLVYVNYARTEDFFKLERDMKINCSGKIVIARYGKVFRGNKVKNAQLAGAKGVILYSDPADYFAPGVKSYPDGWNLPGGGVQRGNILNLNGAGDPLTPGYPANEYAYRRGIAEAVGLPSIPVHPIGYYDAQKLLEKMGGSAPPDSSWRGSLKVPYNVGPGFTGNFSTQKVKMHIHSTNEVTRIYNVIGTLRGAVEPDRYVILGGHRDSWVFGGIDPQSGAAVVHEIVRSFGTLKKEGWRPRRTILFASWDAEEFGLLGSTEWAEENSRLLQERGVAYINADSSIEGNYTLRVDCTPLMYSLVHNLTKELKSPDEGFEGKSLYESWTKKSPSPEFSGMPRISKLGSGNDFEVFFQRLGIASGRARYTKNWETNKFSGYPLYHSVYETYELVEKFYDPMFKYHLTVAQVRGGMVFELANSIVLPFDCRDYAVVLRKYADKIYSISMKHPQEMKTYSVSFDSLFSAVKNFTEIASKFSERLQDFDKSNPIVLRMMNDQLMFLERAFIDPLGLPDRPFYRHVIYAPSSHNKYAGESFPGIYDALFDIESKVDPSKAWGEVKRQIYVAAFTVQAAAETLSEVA
# Procedure: (§1) Surface binding was detected with a labeled secondary antibody specific for the anti-CD3 scFv.
# (§2) The binding affinities to both human and cyno PSMA and human and cyno CD3 epsilon were determined.
# [6] = biological target: PSMA on LNCaP cells (human, UniProt Q04609 1-750); assay: cell-based or functional assay
# Chain of PSMA on LNCaP cells (Q04609 whole entry): as above
# [7] = biological target: T3, human PSMA; assay: Biacore
# [8] = biological target: T4, cynomolgus monkey PSMA; assay: Biacore
# [9] = biological target: PSMA on 22Rv1 cells (human, UniProt Q04609 1-750); assay: cell-based or functional assay
# Chain of PSMA on 22Rv1 cells (Q04609 whole entry): as above
# [10] = biological target: T1, cynomolgus monkey CD3 epsilon; assay: Biacore
# [11] = biological target: T2, human CD3 epsilon; assay: Biacore
# [12] = biological target: T3, human PSMA; assay: BLI or SPR
# [13] = biological target: T4, cynomolgus monkey PSMA; assay: BLI or SPR
# [14] = biological target: T1, cynomolgus monkey CD3 epsilon; assay: BLI or SPR
# [15] = biological target: T2, human CD3 epsilon; assay: BLI or SPR
# [16] = biological target: T6, human PSMA-Fc (human, UniProt Q04609 44-750); assay: Octet
# T6 construct: also called Human PSMA-Fc fusion
# T6 sequence (Q04609 44-750 limits assumed): as the sequence (Q04609 44-750 limits assumed) above
# [17] = biological target: T7, cyno PSMA on PSMA-transfected CHO cells (cynomolgus monkey, UniProt A0A2K5VNZ0 1-750); assay: cell binding, labeled secondary antibody
# T7 construct: whole, on cells; also called Cyno PSMA CHO
# Procedure: as §1, §2
# [18] = biological target: T6, human PSMA-Fc; assay: Octet; remark: listed apart in the source
# [19] = biological target: T6, human PSMA-Fc; assay: Octet, PSMA-Fc
# Procedure: Binding affinity of select PSMA PTE variants was tested by Octet.
# [20] = biological target: T3, human PSMA; assay: relative binding to PSMA, uTCE
binder,measurement,setting,value
"uTCE from AC3445 (bispecific antibody, also called PSMA.119-CD3.23) QVQLVESGGGVVQPGRSLRLSCAASGRTFGIYVMGWVRQAPGKEREFVAAISWSGSNRKVSDSVKGRFTISRDNSKNTLYLQMNSLRAEDTAVYYCAASNRLYGRTWYDFNESDYWGQGTQVTVSSGGGGSGGGSELVVTQEPSLTVSPGGTVTLTCRSSNGAVTSSNYANWVQQKPGQAPRGLIGGTNKRAPGTPARFSGSLLGGKAALTLSGVQPEDEAVYYCALWYPNLWVFGGGTKLTVLSESATPESGPGTSPGATPESGPGTSESATPEVQLLESGGGIVQPGGSLKLSCAASGFTFNTYAMNWVRQAPGKGLEWVARIRSKYNNYATYYADSVKDRFTISRDDSKNTVYLQMNNLKTEDTAVYYCVRHENFGNSYVSWFAHWGQGTLVTVSS",Kd,[1],40 nM
same,Kd,[2],34.8 nM
same,Kd,[3],6.2 nM
same,Kd,[4],47.5 nM
"AMX-500(uTCE) (bispecific antibody, also called uTCE from AC3896; AMX-500-P4 uTCE) QVQLVESGGGVVQPGRSLRLSCAASGRTFGIYVWGWFRQAPGKEREFVGAMSWSGSNRKVSDSVKGRFTISRDNSKNTLYLQMNSLRAEDTAVYYCAASNKEYGRTWYDFNESDYWGQGTQVTVSSGGGGSGGGSELVVTQEPSLTVSPGGTVTLTCRSSNGAVTSSNYANWVQQKPGQAPRGLIGGTNKRAPGTPARFSGSLLGGKAALTLSGVQPEDEAVYYCALWYPNLWVFGGGTKLTVLSESATPESGPGTSPGATPESGPGTSESATPEVQLVESGGGIVQPGGSLRLSCAASGFTFSTYAMNWVRQAPGKGLEWVGRIRTKRNNYATYYADSVKGRFTISRDDSKNTVYLQMNSLKTEDTAVYYCVRHENFGNSYVSWFAHWGQGTLVTVSS",Kd,[1],38.8 nM
same,Kd,[2],33.2 nM
same,EC50,[5],17.4 nM
same,"in vitro cytotoxicity IC50, LNCaP cells, donor 1",[6],0.024 nM
same,"in vitro cytotoxicity IC50, LNCaP cells, donor 2",[6],0.015 nM
same,"in vitro cytotoxicity IC50, LNCaP cells, donor 3",[6],0.016 nM
same,"in vitro cytotoxicity IC50, LNCaP cells, donor 5",[6],0.032 nM
same,Kd,[7],11.7 nM
same,Kd,[8],230 nM
same,"in vitro cytotoxicity IC50, 22Rv1 cells, donor 1",[9],0.691 nM
same,"in vitro cytotoxicity IC50, 22Rv1 cells, donor 2",[9],1.34 nM
same,"in vitro cytotoxicity IC50, 22Rv1 cells, donor 3",[9],1.3 nM
same,Kd,[3],12.1 nM
same,Kd,[4],201 nM
same,Kd,[10],13.7 nM
same,Kd,[11],12.8 nM
same,Kd,[12],44 nM
same,koff,[12],0.012 s⁻¹
same,kon,[12],270000 M⁻¹ s⁻¹
same,Kd,[13],410 nM
same,koff,[13],0.043 s⁻¹
same,kon,[13],100000 M⁻¹ s⁻¹
same,Kd,[14],26 nM
same,koff,[14],0.1 s⁻¹
same,kon,[14],5e+06 M⁻¹ s⁻¹
same,Kd,[15],28 nM
same,koff,[15],0.1 s⁻¹
same,kon,[15],4e+06 M⁻¹ s⁻¹
"uTCE from AC3934 (bispecific antibody, also called AMX500-P7 uTCE; PSMA.262-CD3.228) QVQLVESGGGVVQPGRSLRLSCAASGRTFGIYVWGWVRQAPGKEREFVGAISWSGSNRKVSDSVKGRFTISRDNSKNTLYLQMNSLRAEDTAVYYCAASNKLYGRTWYDFNESDYWGQGTQVTVSSGGGGSGGGSELVVTQEPSLTVSPGGTVTLTCRSSNGAVTSSNYANWVQQKPGQAPRGLIGGTNKRAPGTPARFSGSLLGGKAALTLSGVQPEDEAVYYCALWYPNLWVFGGGTKLTVLSESATPESGPGTSPGATPESGPGTSESATPEVQLVESGGGIVQPGGSLRLSCAASGFTFSTYAMNWVRQAPGKGLEWVGRIRTKRNNYATYYADSVKGRFTISRDDSKNTVYLQMNSLKTEDTAVYYCVRHENFGNSYVSWFAHWGQGTLVTVSS",Kd,[1],33.7 nM
same,Kd,[2],26.6 nM
same,Kd,[7],0.5 nM
same,Kd,[8],13 nM
same,Kd,[3],1.6 nM
same,Kd,[4],13.1 nM
same,Kd,[10],10.4 nM
same,Kd,[11],9.83 nM
"uTCE from AC3928 (bispecific antibody, also called AMX500-P6 uTCE; PSMA.350-CD3.23) QVQLVESGGGVVQPGRSLRLSCAASGRTFGIYVWGWFRQAPGKEREFVGAMSWSGSNRKVSDSVKGRFTISRDNSKNTLYLQMNSLRAEDTAVYYCAASNKEYGRTWYDFNESDYWGQGTQVTVSSGGGGSGGGSELVVTQEPSLTVSPGGTVTLTCRSSNGAVTSSNYANWVQQKPGQAPRGLIGGTNKRAPGTPARFSGSLLGGKAALTLSGVQPEDEAVYYCALWYPNLWVFGGGTKLTVLSESATPESGPGTSPGATPESGPGTSESATPEVQLLESGGGIVQPGGSLKLSCAASGFTFNTYAMNWVRQAPGKGLEWVARIRSKYNNYATYYADSVKDRFTISRDDSKNTVYLQMNNLKTEDTAVYYCVRHENFGNSYVSWFAHWGQGTLVTVSS",Kd,[1],44.9 nM
same,Kd,[2],43 nM
same,Kd,[7],19 nM
same,Kd,[8],354 nM
same,Kd,[3],13.2 nM
same,Kd,[4],198 nM
same,Kd,[10],26.6 nM
same,Kd,[11],27.3 nM
"uTCE of AC3092 (bispecific antibody, also called AMX-500-P1; PSMA.5-CD3.23) QVQLVESGGGVVQPGRSLRLSCAASGRTFGIYVMGWVRQAPGKEREFVAAISWSGSNRLVSDSVKGRFTISRDNSKNTLYLQMNSLRAEDTAVYYCAASNRLYGRTWYDFNESDYWGQGTQVTVSSGGGGSGGGSELVVTQEPSLTVSPGGTVTLTCRSSNGAVTSSNYANWVQQKPGQAPRGLIGGTNKRAPGTPARFSGSLLGGKAALTLSGVQPEDEAVYYCALWYPNLWVFGGGTKLTVLGATPPETGAETESPGETTGGSAESEPPGEGEVQLLESGGGIVQPGGSLKLSCAASGFTFNTYAMNWVRQAPGKGLEWVARIRSKYNNYATYYADSVKDRFTISRDDSKNTVYLQMNNLKTEDTAVYYCVRHENFGNSYVSWFAHWGQGTLVTVSS",Kd,[16],3.9 nM
same,koff,[16],0.00027 s⁻¹
same,kon,[16],72000 M⁻¹ s⁻¹
same,Kd,[1],64.6 nM
same,Kd,[2],71.9 nM
same,EC50,[17],28.8 nM
same,EC50,[5],9.06 nM
same,Kd,[18],3.9 nM
same,Kd,[19],3.9 nM
same,koff,[19],0.000273 s⁻¹
same,kon,[19],72500 M⁻¹ s⁻¹
same,Kd,[3],4.5 nM
same,Kd,[4],41.1 nM
"uTCE of AC2755 (bispecific antibody, V domains shown, TCE with CD3.23; also called VHH41) VH: QVQLVESGGGVVQPGRSLRLSCAASGRTFDVYAMGWVRQAPGKERELVAAINWSGSNKFHADSVKGRFTISRDNSKNTLYLQMNSLKTEDTAMYFCAASTRLYGTTWYEFNDSDYWGQGTQVTVSS",binding result,[20],binds
"uTCE of AC2750 (bispecific antibody, V domains shown, TCE with CD3.23; also called VHH36) VH: QVQLVESGGGVVQPGRSLRLSCAASGRTFDVYAMGWFRQAPGKGRELVAAINWSGSNKFHADSVKGRFTISRDNSKNTLYLQMNSLRPEDTAVYFCAASTRLYGTTWYEFNDSDYWGQGTQVTVSS",binding result,[20],binds
